From article PMC10629557, “Regulation of replication origin licensing by ORC phosphorylation reveals a two-step mechanism for Mcm2-7 ring closing” (Proceedings of the National Academy of Sciences of the …, 2023)

B1: GST-Sic1 (natural protein, S. cerevisiae, UniProt P38634 1-284, looked up)
chain: MTPSTPPRSRGTRYLAQPSGNTSSSALMQGQKTPQKPSQNLVPVTPSTTKSFKNAPLLAPPNSNMGMTSPFNGLTSPQRSPFPKSSVKRTLFQFESHDNGTVREEQEPLGRVNRILFPTQQNVDIDAAEEEEEGEVLLPPSRPTSARQLHLSLERDEFDQTHRKKIIKDVPGTPSDKVITFELAKNWNNNSPKNDARSQESEDEEDIIINPVRVGKNPFASDELVTQEIRNERKRAMLRENPDIEDVITYVNKKGEVVEKRRLTDEEKRRFKPKALFQSRDQEH
notes: source: E. coli BL21-DE3-Rosetta (plasmid pGEX-Sic1), purified (glutathione elution)
B2: FLAG-Clb5-Cdk1 (complex)
chain 1: MGENHDHEQSIKRNSMIYNENERQLCNSNLKILQNKRALSKNDSSSKQQVQDSKPRRALTDVPVNNNPLSQNKRIVAGSKAAKVRREENIRPIVSAVQKRQIYNDRTAAEQEEEEEEEGEDDDAASIVNKKRRIDAEGVSEIVGWQDLDYVEKDDTAMVAEYSAEIFAFLYRRELETLPSHNYLLDKTSKYYLRPSMRTILVDWLVEVHEKFQCYPETLFLSINLMDRFLAKNKVTMNKLQLLAVTSLFIAAKFEEVNLPKLAEYAYITDGAASKNDIKNAEMFMLTSLEFNIGWPNPLNFLRRISKADDYDPVNRNIGKFILEYAYCCHQFIHLPPSTVSAMAMYIARRMTNRNKNELWNGTLQHYSGGIDPIHDEAFQSLCIDLVKDIASSKTHLDSLILKYKKPRYGSVYFQTFKWCTSEMHSNFQNLFNLK
chain 2: not shown
notes: Clb5, S-phase B-type cyclin, S. cerevisiae; Cdk1 (Cdc28), cyclin-dependent kinase, S. cerevisiae; also called Clb5-Cdc28; source: S. cerevisiae strain ySK119, purified

Columns and labels:
[1] = target: B2; assay: co-IP; purified proteins: 5 pmol FLAG-Clb5-Cdk1 and 10 pmol ORC in 20 uL SM buffer with 1 mM ATP, 20 min; 10 pmol GST-Sic1 added to one of two reactions for 5 min; magnetic anti-Flag beads, 3 washes, elution with 3xFLAG peptide, SDS gel; conditions: both partners purified
[2] = target: T1, origin recognition complex (ORC), wild type, unphosphorylated (S. cerevisiae, UniProt P54784 1-914; P32833 1-620; P54790 1-616; P54791 1-529; P50874 1-479; P38826 …); assay: as above; conditions: both partners purified
T1 construct: Orc1, subunit of the origin recognition complex, S. cerevisiae; Orc2, subunit of the origin recognition complex, S. cerevisiae; Orc3, subunit of the origin recognition complex, S. cerevisiae; Orc4, subunit of the origin recognition complex, S. cerevisiae; Orc5, subunit of the origin recognition complex, S. cerevisiae; Orc6, subunit of the origin recognition complex, S. cerevisiae; For the …

Sequence of FLAG-Clb5-Cdk1 (P00546 whole entry): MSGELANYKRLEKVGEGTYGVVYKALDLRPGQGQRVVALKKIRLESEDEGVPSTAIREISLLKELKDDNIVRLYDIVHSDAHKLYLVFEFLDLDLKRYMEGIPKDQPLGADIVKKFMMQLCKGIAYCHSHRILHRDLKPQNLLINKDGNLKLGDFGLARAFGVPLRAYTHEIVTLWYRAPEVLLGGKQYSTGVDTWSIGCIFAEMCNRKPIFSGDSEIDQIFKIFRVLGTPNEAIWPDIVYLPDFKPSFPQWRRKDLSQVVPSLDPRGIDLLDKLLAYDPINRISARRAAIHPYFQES

Binder	binding result [1]	binding result [2]
B1	binds	–
B2	–	binds
